Test results reported in publication PMC8443317.

Target: recombinant human angiotensin-converting enzyme 2 (ACE2) receptor, biotinylated (human) (UniProt Q9BYF1)
Assay: SPR

Substance | Kd [nM] | koff [s⁻¹] | kon [M⁻¹ s⁻¹]
SARS-CoV-2 spike S1 variant D614G (domain or fragment) | 42.2 | 0.00578 | 138000
recombinant original SARS-CoV-2 spike S1 protein (domain or fragment) | 10.5 | – | –
